Source: a protein production outcome set (Wang et al. 2014)

Assay: label from the status in PepcDB records
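Note: failed if final PepcDB status was selected cloned or expressed and not failed if soluble or beyond.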

With “MPPHASQVSVVVIGYDDAAHVTDAVRSALAQGPAVREVIAVDDCSSDGSPGLLDALAVEDTRVRVLRREVNSGGCGTPRNDGIDAATAPYTMFLDSDDMLPPGAVEALLAAADRHGAQVAAGLCVRRELPSGREVPWQPELYTEPALVPHPARLRRLVHDTLCVNKLYRTDFLREHAIRFPDGRFPYEDFVFSARVLAAGPRMALVPDTVYVWHVRRSAERLSISLDRAGIDNWQARMAAAAQAYDILLGAGEKRLARAARAKFLDHELRMYTRELDLRGTEYRREWWTLTRAYLSAFDAAEFALAPAPGRVIARVVLAAEEPRDLPRLKELAARPARLHPPYARAADGTPVWSADLPQVPLDHVLVRPMHLLPVAVDAELRPRARGTRLRLRLHELYGRVADAGPASVNLEFVHREGGRVGTAATAPLLADPEFDTWSAEVPVDLAALGSGTWDLRLTLRFHDGTSRDTTAHAVAGPGLLRRGVVPSGRHGVLLVQPYATHSGALALRVATGIQGVTSVMGRRLRRLLHW” the protein production was “failed”.

In the case of “MTASFPTRVYLLRHAKAAWAAPGERDFDRGLNEAGFAEAEIIADLAADRRYRPDLILSSTAARCRQTTQAWQRAFNEGIDIVYIDEMYNARSETYLSLIAAQTEVQSVMLVGHNPTMEATLEAMIGEDLLHAALPSGFPTSGLAVLDQDDSAASGKNRWRLIDFLAPGK”, the protein production is reported as “not failed”.

For “MLKNLRLKSFQPEEEYVHFTYSIKNDKREESKELIKEYTTLLQKAIDYLWSLTKIQVRKNGNYKITLPKKKEVYKPLRDELEKINHLASHYVDKAINDAFSILKSWRKRAIKGRASIEKPRVKKAYVRIKTTLRKVVGESVRITVRPYEYITFSWSKSWFSRRVRELELGEPIIKEEKVYLPFRYKLPWATPLNFLAIDSNLYTLDAYDGEKFVTISLKQLYSLKYSMEVKRAKVQSFASKHTKRGRELLRKYSHRERNRVLDFVHKFVNALLDLYPMTFFAVEKLNKESMFVDANDSLSRKISRTVWRSIHRVLKYKAPLYGSFVKEVNPRFTSRSCPRCGFVSRKVGKTFECERCGFKLDRQLNASLNIYLKMCGFPHIRDIARVWVGVIPLMGRRGMNGFPRDFGEAQGLRIDIKYHEIP”, the protein production was “failed”.

For “MHGKDPFSDFREFINTMESRVQELGKAYGVEHLAGPQGFAVRYLFENQDKEIFIKDIEKKLSISKSVASNLVKRMEKNGFVELVTSDKDKRYKYVHLTDLGKKKAQDVGHFREAIHGQLLDGISKEDAETAFRVFHQIRKNLEKNKELEHHHHHH”, the protein production was “not failed”.

For “MKNPIIDNIPCVLLAGGKSSRFITNNIQTNKALMPLKSYSSLLEYQYTRLLKLFKKVIISTKKSYELNAPYLLEKESDLFSPLFGIHNAFLTLQTPYIFFIPIDTPLVSFESIKALCGIKNFSVTYAKSPTKEHYLISLWHQNTLNALIYALKTQNYRLSDLVKNTSSVAINFDKEEEFLNLNTLKDYELAVQILKKRANG”, the protein production was “failed”.

With “MRPRPDAALAMSSGPPAARKPGVVQPALLNMSAWLRPEPGLTVVTPLVRALVLISAFSPQERWLGNGQLAQRTGLPPSTVSRIAQSLVHLGYLLHDGAERKYRLAPAVLGLGYAAIAHSAIQGLAGERMAAFARQHKVHVCLAARDRLDLVVLECRRSLECPVALPLHVGMRVGIAQSPMGWSMLAALPELERCYLLDNVERRMARDWSRLRRRVWEGMAQVGETGYCTSIGEWNPELGALATPVLLEGSSPFVLACIGTSQTMTRARVARELGPRLLAMREALQTEFNVIGH” the protein production was “failed”.

For “SERTELLKPRTLADLIRILHELFAGDEVNVEEVQAVLEAYESNPAEWALYAKFDQYRYTRNLVDQGNGKFNLMILCWGEGHGSSIHDHTDSHCFLKLLQGNLKETLFDWPDKKSNEMIKKSERTLRENQCAYINDSIGLHRVENVSHTEPAVSLHLYSPPFDTCHAFDQRTGHKNKVTMTFHSKFGIRTPFTTSGSLENN”, the protein production was “failed”.

In the case of “MPSQKPIIVSKTSAAASSSSDRLRIIPLGGLHEIGKNTCIYEVGDEILLVDAGLAFPTDGMHGVNVVLPDMTYLRENQHRIKAMVVTHGHEDHIGGIPFHLRQLDIPIIYGPRLAMALLAGKLEEAGVVGRANVKTVQPREVVRIGQNFLVEFIRNTHSIADSFTLAIRTPLGVVIHTGDFKFDHTPVDGETFDIQRLADYGEQGVLCLVSDSTNAELPGFTPSERSVFPNLDRAFSQAQGRLIVTTFASSVHRVNMILELAKKHGRKVTVLGRSMLNVIAHARNLGYIHCSDDLFLPPKELRDHPDRDVLILTTGSQGEPLAALTRIARQEHPQVKIRQGDTVIFSANPIPGNTISVVNTIDQLMMQGAHVVYGKGAGIHVSGHGCQEDQKLMIALTKPKFFVPVHGEHRMLVQHCKTAQSMGVPPEHMIVIDNGDTVELTPESIGLGDRVTAGIELVDTSRTGLVDGKALKERQQLAEDGLVSLSALVNSQGQLVDAPTVHLRGVVTSADPRRVSVWAQKEVEMALDNRWADYCRRLPSGELDVDWVGLHAEVEVGMQRRLKRELQCVPMILCTLQSVPSVAAQPAEEDNRMRRRRSSAPIKVGAKL”, the protein production is reported as “failed”.

For “MTTQSQFLVNLSYGGLASQSNLRANNRVSPSSCQITRTNRSWALPVSFKVEKFQLQRGRRRRGSPCFGESEGLVKNGIGDADGIIIVDHGSRRRESNLMLEEFVKMFKEKTGYPIVEPAHMELAEPSIKDAFSLCVQQGAKRVVVSPFFLFPGRHWHTDIPSLTADAAKEFSGISYLITAPLGPHNLLLDVVNDRIQHCLSHVEGDADECLVCAGTNKCKLYNSS”, the protein production was “failed”.

For “MSRTNINFNNKRTELANKIWDIFIANGYENTTLAFIINKLGISKGALYHYFSSKEECADAAIENRVAFFSNEVLKESEEGLNSIERLKKILLAGIKITSVNEQVKEINSPSNKIFHQKLMVAIIKYFAPIYADIISQGNEEGVFKVKYPLETAEIILTLSHFYLDEDLFKWKKEDMSLKLTAFKETLIKILDADEDTFDFIK”, the protein production was “not failed”.

With “FGNQKIFVCDARADWTNEFRTCSMFKNVHINRWYVITPSRNLRETQEFVQMCIRTASSMKMNICNPIYEEIPDDRNGTYSQAIDNAAANDPQIVMVVMRS” the protein production was “failed”.

In the case of “MNTLECLAVAVALAMDAFAVAIATGIRLREVSPRQTFRLAFHFGLFQALMPVAGWTLGLTVRGYIEQWDHWLAFGLLLYIGVRMMREAFEETEENDDRCDPTRGLTLIMLAVATSIDALAVGLSLSVLGIDIVTPAIVIGVVCLLFTATGLHLGRMLSRAESLGRRAALAGGVVLIGIGLRILYEHGVFDTAATLARSVLG”, the protein production is reported as “failed”.

With “QPTIVLDTDYNIIAANTAYQRQFGVAGKPHVGAKCYRVSHQFAVPCDQAGEHCPMRKAHDSRVPERMLHIHHTPRGPEHVDVELRPIIGQDGTVVAYVERLSSVAVASVQPQQKG” the protein production was “failed”.

With “MTNHNNSGKKKVAILIEQAVEDTEFIIPCNGLKQAGFEVVVLGSRMNEKYKGKRGRLSTQADGTTTEAIASEFDAVVIPGGMAPDKMRRNPNTVRFVQEAMEQGKLVAAVCHGPQVLIEGDLLRGKQATGFIAISKDMMNAGADYLDEALVVDGNLITSREPGDLAIFTTAILSRLGYGGKDAALPDEKDRNAEWWKLADAWGGSTKGDIVRGLNTALGGERYSLEALEKYTEKESDVEAKALFQEMITNKQRHIEYLETYLTRLGEKPSLSANIANQYAKVKTALTGSDDIYQIRSALGDIQTGIGDIGNLCAMYTDPIATAIFKEIYKDLVKYEQRLVSLYRTRTNATVQPPKPTTGAAVSM” the protein production was “not failed”.

With “MTYMNNEVTTKASKQRLEVHKPRPIFFETLTITQIQIFMQSYSRLMQFKVKDLMIDKRRLVEVPDNATLGDALNTMTILGIKPVANRVRAVPVAAKPGQWLGAGGSMIVELDKQSGSARKQYIGMVTMLDVVAHIAGDDGESGLDKKMAAPVSSIIGHCPEGLSLWSLNPNTSIMDCMEMLSKGIHRVLVPLDSNTENITGPELVESASAYAMLSQMDLISFFFDQSSQLHGILSHTVTDLSAIHNTVLALTSQARVKDAIQCMSIAMLNAVPIVEASGEGEDHKQLVDGKNRRVVGTFSASDLKGCHLATLRSWLPLNALEFVEKIPRTLLFTAATSTPGRELVTCHVTSTLAQVIHMVTTKRVHRVWVVDQNGGLQGLVSLTDIIAVVRSALLSGAPDLF” the protein production was “failed”.

With “MYCDHFGFSEHPFALTPNPAFLFLSSRHQEAFAHLLYGIDTRAGFIELSGEVGTGKTTVIRTFLNQLDPETHRTALVFNPTVSPLGLLQGIIREFGLPGTSTEKSELLETLNRFLLDENRAGHTVVLVIDEAQNLSPEVLEQIRLISNLETERDKLIQIVLVGQPELRHLLARQELRQLDQRITVRYHLEPMGLDDTKNYIRHRIRIAAGGREPVIFSAGAVKKIFGFSGGLPRLINAACDRALLLAYTTEAREVSPAMAAAAIADVATEARPPSPSRRFAVAAALILVAALGAGTFAVTRKGGESLPSASPPPTEPAASGEQPLKRTAALAGLAAVPEKDNLSAAVNTILRSWQAPPVASSPSPADLRSLARERGLTVTELSGTLNDLARLDTPALLHITLPQGGKRLVALTSLDKGHIGIDPPIAGHSTLTGGELSTLWSGRASVIWKNFHGIPSRLKPGGRSKAVGQLQELLKGAGYYAGRISGTYDTVTQEAIRSFQTAEGLDADGRTGEKTLLLLYRRAGGFFPPGLTQGKTAARTEAGDRSRGKVAQTRSNGEQSRLEHHHHHH” the protein production was “failed”.

For “MEENMEKNKIKKIALIFNILQVIALAVFEVVLFRLVSYKNKLILDYVPAKYFIILEVVLVAITIIPFLIRKGKKTSIISMVISILMAIVLFATSILGVVYDKDIKNVLNKADQTIDDVVENSKLSTEEYGVYILKSDEAEELKDIENYNLGYNLSYAKDETDSVLKNVLAKANNKLIANEYDDLLKMADELLNTEKTAFIFNQAMLDLIENAGDDTNDGKNNGIYKNFTNKIKCIYVVNVKTAVKEYGGDKNVTKECFNVYISGIDTEGDVTAKSRSDVNIIMSINPVTHQVLLLSTPRDYYVPLSISNGVKDKLTHAGNYGINVSMDTLEMLYDIKLDYFIRLNFTGFVDIIDALGGIDVVSDYSFSTHGYSYSEGLNSNLSGIQALWFARERHAFAEGDKQRGRDQMKVIEAVIKKAQSSALLNNYDEIFANISKSFQTNMPKKDIKALVKYQLNETPNWKVVSTSVTGTGRSDVTYSVPNSRAYVMDPDENSVNEAKKLLQKIQNNKKIKVKTTTE”, the protein production was “failed”.

For “MTYHASTPSTPLLVTGGTGTLGGHVVPLLREAGHDVRVLTRRTRPATGNGITYVTGDLRTGEGVEAAVDGVHTVLHLAGGPKGDDEATRTLVRAAARADVRHLAYISVVGADRVPLAWLRTKLESERAIADSGLGWTVLRAAQFHELTLTMIEKMTRLPVLPVPGGLRLQPVAAREVAVRLAELTLAEPSGRVPDMTGPEVLDLATLAHSYLDLRGGRRRPKLPVRIPGKAGRAYRSGQNLTLEDALVGKVTWTEFLAERAAV”, the protein production was “failed”.

With “MKRTFKMALIASLAVGGSYVLYGSQNKEELSDLALSNVEALTLGTKDCMYQRNSRCYELVVGPPGEPVIIETSEEANWVNRYTIPE” the protein production was “failed”.

With “MEKTVIYLLEDGYVDFVVEKIRTKMEKLLEEKDKIFVVLAGGRTPLPVYEKLAEQKFPWNRIHFFLSDERYVPLDSDQSNFRNINEVLFSRAKIPSGNVHYVDTSLPIEKACEKYEREIRSATDQFDLAILGMGPDGHVASIFDLETGNKDNLVTFTDPSGDPKVPRVTLTFRALNTSLYVLFLIRGKEKINRLTEILKDTPLPAYFVRGKEKTVWFVGK” the protein production was “not failed”.

In the case of “MGGITMTAVVSNRDKINFHEVADHYHSNKIIFGIKFLKNWALERLASCAPVPSWRAKLHKMRGVNIGENVYIGYDVIFDRIHPEMITVGDYAEIGDRCILSAHSRGSLTTRQAYPRSIAPIKIGRGVSVNPGCIITQGVEIGDNSIIGVGSVVSRNISPNSLALGYPAKVIKKLDGLEHHHHHH”, the protein production is reported as “not failed”.

In the case of “MVIASIVIYKHSYSDLKQTLDSLLAVSSINKIVLVDNDHSDWASTYHHPKITYLKSDGNFGFGYGHNYAIKRFAAQSDYFLICNPDIVFESSEFEKLLNFIQTREEALFLPKIVYENGENQYGARLLPSPFNLFARRFSPKYAEQLDEDYLLKNFDLSKPIFAPYLHGCFMLFRSKALLELGGFDERFFMYMEDVDLSRRCAEKFGNIYYPLAQVIHLHEQGSYKNKTLLKAHLKSAWQYFCKWGWLYDAQRSSLNGKCLKQRNG”, the protein production is reported as “failed”.
